Literature values as cited in patent US20230372299A1, “PREPARATION OF TEREVALEFIM AND FORMULATIONS THEREOF” (Angion Biomedica Corp., priority 2020, published 2023).

HGF/SF: pleiotropic growth factor that stimulates cell growth, cell motility, morphogenesis and angiogenesis
half-life: 3 to 5 min
